One block for each substance: values may come before it.
Experiments:
[1] = target: recombinant soluble ULBP6-02 (human) (UniProt Q5VY80)
[2] = target: recombinant soluble ULBP6-02 (human) (UniProt Q5VY80); remark: listed apart in the source
[3] = target: FcγRIIIa on the effector cells of the Promega ADCC Reporter Bioassay (human) (UniProt P08637)
[4] = target: human FcγRIIa-R167, biotinylated (human) (UniProt P12318); test: SPR; Biacore, 37°C; biotinylated FcγRs captured on Series S Sensor Chip CAP; threefold serial dilutions of the anti-ULBP6/2/5 antibodies injected at 30 μL/minute; HBS-P
Chain of human FcγRIIa-R167, biotinylated (human) (P12318 34-317 H167R): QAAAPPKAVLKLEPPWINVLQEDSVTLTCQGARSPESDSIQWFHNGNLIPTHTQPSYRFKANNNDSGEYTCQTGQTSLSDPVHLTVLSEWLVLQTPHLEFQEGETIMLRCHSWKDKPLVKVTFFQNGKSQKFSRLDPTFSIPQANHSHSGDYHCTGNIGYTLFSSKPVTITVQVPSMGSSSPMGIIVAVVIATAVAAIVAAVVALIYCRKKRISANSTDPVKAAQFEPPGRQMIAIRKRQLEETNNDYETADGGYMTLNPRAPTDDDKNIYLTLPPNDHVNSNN

[5] = target: human FcγRIIa-H167, biotinylated (human) (UniProt P12318); test: as above
Chain of human FcγRIIa-H167, biotinylated (human) (P12318 34-317): as the sequence (P12318 34-317 H167R) above, with R134H counted along it

[6] = target: human FcγRIIIa-F176, biotinylated (human) (UniProt P08637); test: as above
Chain of human FcγRIIIa-F176, biotinylated (human) (P08637 17-254): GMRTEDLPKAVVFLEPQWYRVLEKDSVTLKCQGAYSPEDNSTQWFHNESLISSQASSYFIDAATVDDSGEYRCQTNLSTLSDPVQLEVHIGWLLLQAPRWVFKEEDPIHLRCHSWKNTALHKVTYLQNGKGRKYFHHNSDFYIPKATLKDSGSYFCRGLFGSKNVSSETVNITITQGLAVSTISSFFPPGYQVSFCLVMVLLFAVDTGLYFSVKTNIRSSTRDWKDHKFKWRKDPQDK

[7] = target: human FcγRI, biotinylated (human) (UniProt P12314); test: as above
Chain of human FcγRI, biotinylated (human) (P12314 16-374): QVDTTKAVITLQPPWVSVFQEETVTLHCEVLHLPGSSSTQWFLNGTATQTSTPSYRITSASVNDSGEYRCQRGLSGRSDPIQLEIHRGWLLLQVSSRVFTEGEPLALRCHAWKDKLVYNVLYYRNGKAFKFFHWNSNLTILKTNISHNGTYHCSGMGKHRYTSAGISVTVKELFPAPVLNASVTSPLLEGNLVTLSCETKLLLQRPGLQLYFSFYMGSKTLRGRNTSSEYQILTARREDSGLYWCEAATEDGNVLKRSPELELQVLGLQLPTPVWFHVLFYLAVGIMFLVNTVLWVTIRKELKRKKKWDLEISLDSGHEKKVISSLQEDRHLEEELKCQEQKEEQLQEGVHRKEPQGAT

[8] = target: human FcγRIIb, biotinylated (human) (UniProt P31994); test: as above
Chain of human FcγRIIb, biotinylated (human) (P31994 43-310): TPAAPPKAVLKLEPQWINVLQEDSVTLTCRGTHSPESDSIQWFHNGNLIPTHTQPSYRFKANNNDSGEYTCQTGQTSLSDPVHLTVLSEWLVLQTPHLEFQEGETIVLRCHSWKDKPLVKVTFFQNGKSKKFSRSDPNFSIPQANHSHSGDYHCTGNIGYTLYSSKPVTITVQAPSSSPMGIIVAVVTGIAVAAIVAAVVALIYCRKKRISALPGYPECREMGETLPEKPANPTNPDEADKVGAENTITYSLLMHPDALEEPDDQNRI

[9] = target: human FcγRIIIa-V176, biotinylated (human) (UniProt P08637); test: as above
Chain of human FcγRIIIa-V176, biotinylated (human) (P08637 17-254 F176V): as the sequence (P08637 17-254) above, with F160V counted along it

murine NKG2D Fc (murine) = murine NKG2D Fc (murine) (UniProt O54709); test: SPR; Biacore 8K or 8K+, 37°C; NKG2D Fc captured (Protein A chip as told for human NKG2D-Fc), ULBP6 as analyte in HBS-P (0.01 mol/L HEPES pH 7.4, 0.15 mol/L NaCl, 0.005% P20); kinetic or steady-state fit not given
Chain of murine NKG2D Fc (murine) (O54709 90-232): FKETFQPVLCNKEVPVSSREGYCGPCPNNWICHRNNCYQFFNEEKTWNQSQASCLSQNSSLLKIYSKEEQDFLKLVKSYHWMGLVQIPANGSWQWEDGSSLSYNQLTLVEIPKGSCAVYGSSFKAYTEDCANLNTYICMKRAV

human NKG2D Fc (human) = human NKG2D Fc (human) (UniProt P26718); test: as above
Chain of human NKG2D Fc (human) (P26718 73-216): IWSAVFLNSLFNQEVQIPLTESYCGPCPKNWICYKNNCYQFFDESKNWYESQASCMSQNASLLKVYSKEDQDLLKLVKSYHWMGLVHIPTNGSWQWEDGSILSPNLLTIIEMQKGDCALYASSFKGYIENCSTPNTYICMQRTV

Chain of FcγRIIIa on the effector cells of the Promega ADCC Reporter Bioassay (human) (P08637 17-254): as the sequence (P08637 17-254) above

IC50 (so in the source) of the rescue of IFNγ production by PBMCs cocultured with COV644 cells in the presence of sULBP6, donor d1212; pair blocked: sULBP6-02 and NKG2D [1]: 26 nM | IC50 (so in the source) of the rescue of IFNγ production by PBMCs cocultured with COV644 cells in the presence of sULBP6, donor d1939; pair blocked: sULBP6-02 and NKG2D [1]: 10.6 nM | IC50 (so in the source) of the rescue of IFNγ production by PBMCs cocultured with COV644 cells in the presence of sULBP6, donor d33936; pair blocked: sULBP6-02 and NKG2D [1]: 16.5 nM
Substance: Fc-Att-anti-ULBP6/2/5, effector-attenuated (N297G) version of 23ME-01473 (antibody)

IC50 (so in the source) of IFNγ secretion by IL-2/IL-15-primed PBMCs cocultured with COV644 cells and 50 nmol/L sULBP6-02, 0.05-200 nmol/L 23ME-01473, donor d1213; pair blocked: sULBP6-02 and NKG2D [2]: 21.5 nM | IC50 (so in the source) of IFNγ secretion by IL-2/IL-15-primed PBMCs cocultured with COV644 cells and 50 nmol/L sULBP6-02, 0.05-200 nmol/L 23ME-01473, donor d1802; pair blocked: sULBP6-02 and NKG2D [2]: 25.5 nM | IC50 (so in the source) of IFNγ secretion by IL-2/IL-15-primed PBMCs cocultured with COV644 cells and 50 nmol/L sULBP6-02, 0.05-200 nmol/L 23ME-01473, donor d3761; pair blocked: sULBP6-02 and NKG2D [2]: 13.6 nM | IC50 (so in the source) of IFNγ secretion by IL-2/IL-15-primed PBMCs cocultured with COV644 cells and 50 nmol/L sULBP6-02, 0.05-200 nmol/L 23ME-01473, donor d33936; pair blocked: sULBP6-02 and NKG2D [2]: 25.6 nM | EC50 of FcγRIIIa activation (RLU), Promega ADCC reporter assay with luciferase effector cells and COV644 target cells, 0.0001 to 10 nmol/L antibody [3]: 0.0532 nM | Kd [4]: 406 nM | Kd [5]: 270 nM | Kd [6]: 25.5 nM | Kd [7]: 0.92 nM | Kd [8]: 2230 nM | Kd [9]: 6.74 nM
Substance: 23ME-01473, humanized Fc effector-enhanced (afucosylated) anti-ULBP6/2/5 antibody

Kd (murine NKG2D Fc (murine)): 0.64 nM | Kd (human NKG2D Fc (human)): 0.8 nM
Substance: human ULBP6 (analyte of Supplementary Table S6) (from UniProt Q5VY80 26-218) (ligand)

From paper PMC11927390
